Measured values taken from patent US20190030149.

Assays:
[1] = target: T1, peptide CSLGEQQYSV (SEQ ID NO: 17), Example 5
T1 chain: CSLGEQQYSV

[2] = target: T2, peptide CRVPGVAPTL (SEQ ID NO: 18), Example 4
T2 chain: CRVPGVAPTL

[3] = target: T3, peptide CALLPAVPSL (SEQ ID NO: 16), Example 3
T3 chain: CALLPAVPSL

B1: Endoplasmic reticulum aminopeptidase 1 (protein)
chain: MVFLPLKWSLATMSFLLSSLLALLTVSTPSWCQSTEASPKRSDGTPFPWNKIRLPEYVIPVHYDLLIHANLTTLTFWGTTKVEITASQPTSTIILHSHHLQISRATLRKGAGERLSEEPLQVLEHPRQEQIALLAPEPLLVGLPYTVVIHYAGNLSETFHGFYKSTYRTKEGELRILASTQFEPTAARMAFPCFDEPAFKASFSIKIRREPRHLAISNMPLVKSVTVAEGLIEDHFDVTVKMSTYLVAFIISDFESVSKITKSGVKVSVYAVPDKINQADYALDAAVTLLEFYEDYFSIPYPLPKQDLAAIPDFQSGAMENWGLTTYRESALLFDAEKSSASSKLGITMTVAHELAHQWFGNLVTMEWWNDLWLNEGFAKFMEFVSVSVTHPELKVGDYFFGKCFDAMEVDALNSSHPVSTPVENPAQIREMFDDVSYDKGACILNMLREYLSADAFKSGIVQYLQKHSYKNTKNEDLWDSMASICPTDGVKGMDGFCSRSQHSSSSSHWHQEGVDVKTMMNTWTLQKGFPLITITVRGRNVHMKQEHYMKGSDGAPDTGYLWHVPLTFITSKSDMVHRFLLKTKTDVLILPEEVEWIKFNVGMNGYYIVHYEDDGWDSLTGLLKGTHTAVSSNDRASLINNAFQLVSIGKLSIEKALDLSLYLKHETEIMPVFQGLNELIPMYKLMEKRDMNEVETQFKAFLIRLLRDLIDKQTWTDEGSVSERMLRSQLLLLACVHNYQPCVQRAEGYFRKWKESNGNLSLPVDVTLAVFAVGAQSTEGWDFLYSKYQFSLSSTEKSQIEFALCRTQNKEKLQWLLDESFKGDKIKTQEFPQILTLIGRNPVGYPLAWQFLRKNWNKLVQKFELGSSSIAHMVMGTTNQFSTRTRLEEVKGFFSSLKENGSQLRCVQQTIETIEENIGWMDKNFDKIRVWLQSEKLERM
B1 was tested, and the formation rate (%) of the peptide obtained by trimming (SEQ ID NO: 6), 1 hr later [1] was 77.6%, the formation rate (%) of the peptide obtained by trimming (SEQ ID NO: 6), 2 hr later [1] was 72.8% and the formation rate (%) of the peptide obtained by trimming (SEQ ID NO: 6), 4 hr later [1] was 46%. The formation rate (%) of the peptide obtained by trimming (SEQ ID NO: 6), 8 hr later [1] was 7.9%, the formation rate (%) of the peptide obtained by trimming (SEQ ID NO: 7), 1 hr later [2] was 59.1% and the formation rate (%) of the peptide obtained by trimming (SEQ ID NO: 7), 2 hr later [2] was 57.5%. For the same protein, the formation rate (%) of the peptide obtained by trimming (SEQ ID NO: 7), 4 hr later [2] was 30.1%, the formation rate (%) of the peptide obtained by trimming (SEQ ID NO: 7), 8 hr later [2] was 7.8% and the formation rate (%) of the peptide obtained by trimming (SEQ ID NO: 5), 1 hr later [3] was 65.5%. The formation rate (%) of the peptide obtained by trimming (SEQ ID NO: 5), 2 hr later [3] was 50.6%, the formation rate (%) of the peptide obtained by trimming (SEQ ID NO: 5), 4 hr later [3] was 13.5% and the formation rate (%) of the peptide obtained by trimming (SEQ ID NO: 5), 8 hr later [3] was 0%.
